Data reported in US20210388116A1 (University of California, published 2021).
Where no end group is shown, it is not given here. The star is where a group is joined. Biotin = O=C1N[C@H]2[C@H](CS[C@H]2CCCCC(=O)*)N1

Experiments:
[1] = target: T1, G6A/OxCE reaction product (biotin-GDGDGA peptide subjected to the OxCE modification procedure); assay: peptide ELISA on streptavidin plates
T1 construct: Negative control peptide in which the C-terminal Lys is replaced with Ala
T1 peptide: Biotin-GDGDGA
Procedure: Biotinylated short peptides G6A-OH, G6K-OH (non-modified) or G6K-OxCE (modified with OxCE) were immobilized to streptavidin pre-coated plates (Eagle Biosciences, Amherst, N.H.), at 10 μg/mL in PBS, overnight at 4° C. After washing with PBS, AG23 was added at 1 μg/mL in 1% BSA-TBS and incubated at room temperature for 90 min. The remaining ELISA was completed as described above.

[2] = target: T2, copper oxidized LDL (CuOxLDL) (human, UniProt P04114 28-4563, limits assumed, copper-oxidized; enriched in oxidized phospholipid (OxPL); positions not stated); assay: chemiluminescent ELISA on plated antigen
T2 construct: A modified lipoprotein particle (protein plus lipid), prepared as in Gonen et al
T2 sequence (P04114 28-4563 limits assumed): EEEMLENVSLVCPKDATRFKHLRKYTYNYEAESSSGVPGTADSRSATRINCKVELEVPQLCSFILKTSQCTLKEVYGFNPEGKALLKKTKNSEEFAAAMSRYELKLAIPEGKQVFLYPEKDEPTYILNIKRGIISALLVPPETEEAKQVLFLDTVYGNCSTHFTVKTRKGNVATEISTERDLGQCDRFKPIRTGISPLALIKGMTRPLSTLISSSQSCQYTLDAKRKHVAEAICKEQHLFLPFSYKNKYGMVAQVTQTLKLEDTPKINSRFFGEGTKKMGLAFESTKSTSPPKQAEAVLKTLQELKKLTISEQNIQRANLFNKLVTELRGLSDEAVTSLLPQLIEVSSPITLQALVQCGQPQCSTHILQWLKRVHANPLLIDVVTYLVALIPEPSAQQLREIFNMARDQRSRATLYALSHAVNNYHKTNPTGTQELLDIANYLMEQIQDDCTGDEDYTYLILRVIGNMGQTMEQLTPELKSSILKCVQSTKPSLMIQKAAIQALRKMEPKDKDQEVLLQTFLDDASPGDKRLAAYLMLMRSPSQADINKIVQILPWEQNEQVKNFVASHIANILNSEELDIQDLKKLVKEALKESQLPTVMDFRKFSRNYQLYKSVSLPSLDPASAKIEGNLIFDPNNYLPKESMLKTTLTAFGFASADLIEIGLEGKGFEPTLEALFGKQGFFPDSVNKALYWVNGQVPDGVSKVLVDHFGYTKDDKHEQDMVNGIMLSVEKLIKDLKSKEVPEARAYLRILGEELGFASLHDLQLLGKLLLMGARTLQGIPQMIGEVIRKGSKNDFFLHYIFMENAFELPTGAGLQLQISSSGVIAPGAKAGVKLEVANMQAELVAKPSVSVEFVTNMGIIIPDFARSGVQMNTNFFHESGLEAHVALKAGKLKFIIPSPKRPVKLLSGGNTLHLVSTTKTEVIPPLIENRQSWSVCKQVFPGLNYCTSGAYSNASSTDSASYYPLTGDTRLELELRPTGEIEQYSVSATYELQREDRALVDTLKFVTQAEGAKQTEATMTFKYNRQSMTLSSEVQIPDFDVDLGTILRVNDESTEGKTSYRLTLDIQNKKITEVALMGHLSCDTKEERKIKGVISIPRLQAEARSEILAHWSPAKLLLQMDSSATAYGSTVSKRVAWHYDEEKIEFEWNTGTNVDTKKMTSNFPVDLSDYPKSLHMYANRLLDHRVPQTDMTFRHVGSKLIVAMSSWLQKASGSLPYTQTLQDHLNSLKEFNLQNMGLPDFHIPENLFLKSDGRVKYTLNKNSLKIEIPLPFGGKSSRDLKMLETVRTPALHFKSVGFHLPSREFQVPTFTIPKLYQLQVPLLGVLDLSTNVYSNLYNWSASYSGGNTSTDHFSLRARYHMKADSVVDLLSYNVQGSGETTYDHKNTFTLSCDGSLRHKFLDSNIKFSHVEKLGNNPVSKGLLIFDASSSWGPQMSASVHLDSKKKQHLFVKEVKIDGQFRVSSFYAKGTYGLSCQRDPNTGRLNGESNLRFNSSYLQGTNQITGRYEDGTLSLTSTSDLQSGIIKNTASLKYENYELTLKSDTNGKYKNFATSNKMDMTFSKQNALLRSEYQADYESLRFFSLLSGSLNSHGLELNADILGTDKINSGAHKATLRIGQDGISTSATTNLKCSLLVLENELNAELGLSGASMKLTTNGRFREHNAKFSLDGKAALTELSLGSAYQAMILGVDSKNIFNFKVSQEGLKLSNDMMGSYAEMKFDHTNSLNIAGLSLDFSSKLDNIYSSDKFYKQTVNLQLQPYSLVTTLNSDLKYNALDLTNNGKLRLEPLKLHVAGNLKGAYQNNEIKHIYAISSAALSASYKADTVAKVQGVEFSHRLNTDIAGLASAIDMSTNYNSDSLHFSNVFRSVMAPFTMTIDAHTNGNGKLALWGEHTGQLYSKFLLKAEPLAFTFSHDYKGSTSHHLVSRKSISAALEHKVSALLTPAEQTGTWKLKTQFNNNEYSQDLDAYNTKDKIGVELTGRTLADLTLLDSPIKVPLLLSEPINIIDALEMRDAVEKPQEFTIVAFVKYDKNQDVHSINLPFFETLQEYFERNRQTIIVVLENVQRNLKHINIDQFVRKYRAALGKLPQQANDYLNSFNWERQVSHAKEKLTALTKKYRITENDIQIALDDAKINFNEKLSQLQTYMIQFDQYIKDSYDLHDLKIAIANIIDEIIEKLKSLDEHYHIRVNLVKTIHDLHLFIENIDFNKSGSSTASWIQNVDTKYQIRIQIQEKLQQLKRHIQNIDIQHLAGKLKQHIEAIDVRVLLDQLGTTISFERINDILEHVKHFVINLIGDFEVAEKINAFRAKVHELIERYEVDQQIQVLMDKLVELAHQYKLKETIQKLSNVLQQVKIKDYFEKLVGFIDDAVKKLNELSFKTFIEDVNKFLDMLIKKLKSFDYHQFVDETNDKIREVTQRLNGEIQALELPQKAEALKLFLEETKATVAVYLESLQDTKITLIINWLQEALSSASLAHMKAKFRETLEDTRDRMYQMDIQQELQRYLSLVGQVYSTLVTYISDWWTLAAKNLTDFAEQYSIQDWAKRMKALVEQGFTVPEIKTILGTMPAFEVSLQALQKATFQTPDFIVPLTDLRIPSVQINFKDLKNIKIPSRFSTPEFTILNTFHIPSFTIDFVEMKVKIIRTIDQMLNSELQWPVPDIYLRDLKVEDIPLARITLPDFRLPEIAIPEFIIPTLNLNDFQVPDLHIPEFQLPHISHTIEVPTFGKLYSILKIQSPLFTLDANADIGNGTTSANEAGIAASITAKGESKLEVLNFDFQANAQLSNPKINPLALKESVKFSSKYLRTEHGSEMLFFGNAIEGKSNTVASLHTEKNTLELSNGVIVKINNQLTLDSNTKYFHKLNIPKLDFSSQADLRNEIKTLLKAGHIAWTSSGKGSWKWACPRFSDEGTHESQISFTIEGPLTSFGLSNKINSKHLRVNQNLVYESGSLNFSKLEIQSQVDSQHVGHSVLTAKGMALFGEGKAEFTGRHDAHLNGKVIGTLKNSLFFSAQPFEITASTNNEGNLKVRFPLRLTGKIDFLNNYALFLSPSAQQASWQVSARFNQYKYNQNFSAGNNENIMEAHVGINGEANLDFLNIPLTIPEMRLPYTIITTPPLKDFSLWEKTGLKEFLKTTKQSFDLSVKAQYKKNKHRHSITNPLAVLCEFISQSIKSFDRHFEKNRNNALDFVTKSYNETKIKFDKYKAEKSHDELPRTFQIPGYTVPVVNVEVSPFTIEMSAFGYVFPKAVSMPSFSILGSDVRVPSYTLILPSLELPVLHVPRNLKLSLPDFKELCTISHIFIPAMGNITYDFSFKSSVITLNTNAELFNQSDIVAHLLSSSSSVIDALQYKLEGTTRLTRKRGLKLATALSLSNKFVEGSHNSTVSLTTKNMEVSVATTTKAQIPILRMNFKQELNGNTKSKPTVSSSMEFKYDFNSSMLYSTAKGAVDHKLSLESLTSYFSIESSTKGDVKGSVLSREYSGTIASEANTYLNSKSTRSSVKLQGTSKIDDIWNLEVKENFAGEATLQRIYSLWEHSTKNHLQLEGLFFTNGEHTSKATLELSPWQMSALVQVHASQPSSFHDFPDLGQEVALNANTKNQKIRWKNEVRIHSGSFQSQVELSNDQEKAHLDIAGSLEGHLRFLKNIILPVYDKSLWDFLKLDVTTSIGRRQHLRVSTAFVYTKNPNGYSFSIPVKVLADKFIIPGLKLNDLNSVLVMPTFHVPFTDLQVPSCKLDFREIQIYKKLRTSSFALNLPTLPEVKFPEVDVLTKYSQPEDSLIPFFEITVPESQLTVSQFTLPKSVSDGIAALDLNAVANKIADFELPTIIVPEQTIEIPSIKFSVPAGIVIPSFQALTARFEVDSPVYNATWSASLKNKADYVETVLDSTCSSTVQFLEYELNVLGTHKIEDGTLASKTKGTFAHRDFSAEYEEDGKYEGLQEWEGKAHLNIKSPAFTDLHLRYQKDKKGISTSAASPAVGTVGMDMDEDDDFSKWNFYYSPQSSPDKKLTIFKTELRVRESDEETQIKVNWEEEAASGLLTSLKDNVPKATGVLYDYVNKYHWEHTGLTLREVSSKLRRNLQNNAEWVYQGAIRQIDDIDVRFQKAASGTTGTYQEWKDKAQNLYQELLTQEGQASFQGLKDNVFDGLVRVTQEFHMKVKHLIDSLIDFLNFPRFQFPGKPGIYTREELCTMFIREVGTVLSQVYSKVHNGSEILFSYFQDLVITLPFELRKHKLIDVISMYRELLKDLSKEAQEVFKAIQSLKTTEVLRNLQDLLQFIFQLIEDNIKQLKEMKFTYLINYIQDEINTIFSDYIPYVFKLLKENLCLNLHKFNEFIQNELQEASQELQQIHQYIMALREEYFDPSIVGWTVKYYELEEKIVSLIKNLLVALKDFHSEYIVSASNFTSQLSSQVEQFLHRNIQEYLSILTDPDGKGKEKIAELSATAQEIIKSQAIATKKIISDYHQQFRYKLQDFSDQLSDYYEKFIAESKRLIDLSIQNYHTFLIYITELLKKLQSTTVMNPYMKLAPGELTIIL
Procedure: Representative gel and blots from 20 repeats. (B) Representative results of AG23 (0.125 μg/mL) binding to BSA, OxCE-BSA, MDA-LDL and CuOxLDL (5 μg/mL). Four different OxCE-BSA preparations were tested in 12 independent experiments, with AG23 concentrations ranging from […]. […] Mean±SD; one-way ANOVA with multiple comparisons; ****, P<0.0001. (C) Competition ELISA: AG23 (0.01 μg/mL) was preincubated in the absence or presence of increasing concentrations of non-modified KLH or OxCE-KLH. Immune complexes were spun down, and supernatants were tested for binding to OxCE-BSA (5 μg/mL). Each data point is the mean of two independent assays in technical triplicates. (D) AG23 (1 μg/mL) binding to 10 μg/mL of non-modified G6K-OH and G6A-OH peptides, and the peptides subjected to the OxCE covalent modification. […] Mean±SD; n=6 for G6K and n=2 for G6A, each in technical duplicates; one-way ANOVA with multiple comparisons; **, P<0.01. (E-F) AG23 (0.15 μg/mL) was preincubated overnight with non-modified (250 μg/mL) or OxCE-modified (10-250 μg/mL) BSA or GDGDGK-OH peptide. […] After washes, AG23 binding to the wells was measured. […]
Monoclonal antibody binding to an array of epitopes was measured by chemiluminescent ELISA as described in Gonen et al. In brief, wells were coated with antigens at 5 μg/mL in PBS overnight at 4° C. […]

B1: monoclonal Ab (mAb) AG23 (antibody, mouse IgG1, kappa, V domains shown)
VH: EVQLQQSGPELVKPGASVKISCKASGYSFTGYYMNWVRQSPEKNLEWIGEINPYTGGTTYNQKFKARATLTVDKSSSTAYVQLKSLTSEDSAVYFCVSWDYDLDYWGQGTTLTVSS
VL: QIVLTQSPAFMSASPGEKVTMTCSASSSVSYMHWYQQKSGTSPKRWIYATSKVASGVPARFSGSGSGTSYSLTISSMEAEDAATYYCLQWSSNPYTFGGGTKLEIKR
notes: Murine hybridoma IgG purified over Protein A/G; Used biotinylated in some sandwich ELISAs; also called Clone 23; colony #23
Q: Does B1 bind [1]?
A: no binding (tested: AG23 1 µg/mL; peptide 10 µg/mL)

Q: Does B1 bind [2]?
A: no binding (tested: AG23 0.125 µg/mL; antigen 5 µg/mL)
